Molecular target: human β-Klotho extracellular domain (aa 1–992) His6 (human) (UniProt Q86Z14)
Assay: BLI; Octet RED; biotinylated β-Klotho ECD His6 (10 μg/ml) loaded onto streptavidin biosensors; analyte at various concentrations in kinetics buffer, 5 min association, 10 min dissociation; globally fitted 1:1 binding model

Chain of UniProt Q86Z14 (Q86Z14 1-992): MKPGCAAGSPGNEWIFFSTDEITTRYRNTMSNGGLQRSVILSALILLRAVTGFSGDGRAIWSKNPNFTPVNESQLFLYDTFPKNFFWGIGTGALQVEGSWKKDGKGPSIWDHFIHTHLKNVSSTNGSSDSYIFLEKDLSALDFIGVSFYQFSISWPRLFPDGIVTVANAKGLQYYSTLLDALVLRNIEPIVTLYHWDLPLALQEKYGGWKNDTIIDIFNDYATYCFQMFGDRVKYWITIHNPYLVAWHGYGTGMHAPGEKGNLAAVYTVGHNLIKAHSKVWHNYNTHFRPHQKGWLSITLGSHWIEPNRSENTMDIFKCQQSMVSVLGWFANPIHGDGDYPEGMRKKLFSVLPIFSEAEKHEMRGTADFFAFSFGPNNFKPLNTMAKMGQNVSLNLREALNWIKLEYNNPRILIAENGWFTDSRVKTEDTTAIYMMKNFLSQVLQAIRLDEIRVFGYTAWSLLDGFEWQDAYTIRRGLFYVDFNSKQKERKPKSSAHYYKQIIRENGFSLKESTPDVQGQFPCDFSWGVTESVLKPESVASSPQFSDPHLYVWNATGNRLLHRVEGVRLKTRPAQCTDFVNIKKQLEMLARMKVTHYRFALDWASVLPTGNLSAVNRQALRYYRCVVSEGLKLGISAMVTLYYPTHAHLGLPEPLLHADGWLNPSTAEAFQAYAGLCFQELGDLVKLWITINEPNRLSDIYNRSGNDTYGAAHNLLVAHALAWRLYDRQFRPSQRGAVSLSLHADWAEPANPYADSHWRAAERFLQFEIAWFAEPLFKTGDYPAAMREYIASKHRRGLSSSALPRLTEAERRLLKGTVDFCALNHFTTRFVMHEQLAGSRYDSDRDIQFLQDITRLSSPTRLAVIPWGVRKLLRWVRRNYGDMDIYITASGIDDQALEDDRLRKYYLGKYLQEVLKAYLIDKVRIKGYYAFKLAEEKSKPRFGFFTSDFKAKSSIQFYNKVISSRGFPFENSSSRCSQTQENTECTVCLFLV

In the case of fibroblast growth factor 21 (ligand), the Kd is reported as 3.55 nM.

Source: publication PMC5912448
